T1: Alfin1 (Medicago sativa, UniProt Q40359 Q40359:1-257)
T1 sequence: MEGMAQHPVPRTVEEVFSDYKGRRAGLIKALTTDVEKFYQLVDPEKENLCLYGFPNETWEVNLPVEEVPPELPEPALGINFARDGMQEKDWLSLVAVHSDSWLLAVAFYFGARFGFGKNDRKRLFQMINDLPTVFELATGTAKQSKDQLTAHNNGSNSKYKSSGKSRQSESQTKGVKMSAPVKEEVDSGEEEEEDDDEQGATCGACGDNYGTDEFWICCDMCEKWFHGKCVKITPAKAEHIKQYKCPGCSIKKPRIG

B1: Alfin1 binding sequence SEQ 7 (dsDNA)
DNA 1: GACGGGGATAGGTGAGGTGGAGGGACAAT
DNA 2: ATTGTCCCTCCACCTCACCTATCCCCGTC
B2: Alfin1 binding sequence SEQ 8 (dsDNA)
DNA 1: GACGGCAGAAGGGAGAAACGTGGAGAATC
DNA 2: GATTCTCCACGTTTCTCCCTTCTGCCGTC
B3: Alfin1 binding sequence SEQ 9 (dsDNA)
DNA 1: GACGGCGGGAAGGAGTGTGGTAGAGAGCC
DNA 2: GGCTCTCTACCACACTCCTTCCCGCCGTC
B4: Alfin1 binding sequence SEQ 4 (dsDNA)
DNA 1: GACGCAAAGGGGGTGGGGACGGCGCTTTT
DNA 2: AAAAGCGCCGTCCCCACCCCCTTTGCGTC
B5: Alfin1 binding sequence SEQ 6 (dsDNA)
DNA 1: GACGGGTAGGGTGTGGGGGGTGTTTTATT
DNA 2: AATAAAACACCCCCCACACCCTACCCGTC
B6: Alfin1 binding sequence SEQ 10 (dsDNA)
DNA 1: GACGAAGGAAGGACGGCAGCGTGTTGC
DNA 2: GCAACACGCTGCCGTCCTTCCTTCGTC
B7: Alfin1 binding sequence SEQ 5 (dsDNA)
DNA 1: GACGCAAAGGGGGTGGGGACGGCGCTTTT
DNA 2: AAAAGCGCCGTCCCCACCCCCTTTGCGTC

The binders below were run against T1, Alfin1 (assay: DNA sequence that binds Alfin1 in vitro).
Text: (§1) To identify DNA sequences that are recognized by Alfin1 protein, the purified Alfin1 protein was used in the "random DNA binding" assay (See: Rauscher III F. J., Morris J. F., Tournay O. E., Cook D. M., Curran T. *Binding of the Wilm's tumor locus* zinc finger protein to the EGR-1 consensus sequence. Science, 1990; 250, 1259–1262) and the bound DNA purified by four rounds of PCR amplification and binding, followed by cloning of the isolated sequences.

Binding result, binds:
B1
B2
B3
B4
B5
B6

What follows are binders tested against T1, Alfin1 (assay: DNA sequence that binds Alfin1 in vitro; listed identical to SEQ 4).
Text: as §1

Binding result, binds:
B7

From US6936708, “Expression of Alfin 1 and methods for producing transgenic plants having increased root growth and root specific gene activation” (Arizona Board of Regents, acting for and on behalf of …)
